{"source": "patent US20080274118A1", "about": "(Novartis, published 2008)", "binders": {"B1": {"name": "CHIR-12.12 fully human anti-CD40 monoclonal antibody (antibody, V domains shown)", "VH": "QVQLVESGGGVVQPGRSLRLSCAASGFTFSSYGMHWVRQAPGKGLEWVAVISYEESNRYHADSVKGRFTISRDNSKITLYLQMNSLRTEDTAVYYCARDGGIAAPGPDYWGQGTLVTVSS", "VL": "DIVMTQSPLSLTVTPGEPASISCRSSQSLLYSNGYNYLDWYLQKPGQSPQVLISLGSNRASGVPDRFSGSGSGTDFTLKISRVEAEDVGVYYCMQARQTPFTFGPGTKVDIRR", "notes": "also called 153.8E2.D10.D6.12.12"}, "B2": {"name": "CD40L on formaldehyde-fixed transfected CHO cells (ligand)", "chain": "MIETYNQTSPRSAATGLPISMKIFMYLLTVFLITQMIGSALFAVYLHRRLDKIEDERNLHEDFVFMKTIQRCNTGERSLSLLNCEEIKSQFEGFVKDIMLNKEETKKENSFEMQKGDQNPQIAAHVISEASSKTTSVLQWAEKGYYTMSNNLVTLENGKQLTVKRQGLYYIYAQVTFCSNREASSQAPFIASLCLKSPGRFERILLRAANTHSSAKPCGQQSIHLGGVFELQPGASVFVNVTDPSQVSHGTGFTSFGLLKL"}, "B3": {"name": "CHIR-5.9 fully human anti-CD40 monoclonal antibody (antibody, V domains shown)", "VH": "EVQLVQSGAEVKKPGESLKISCKGSGYSFTSYWIGWVRQMPGKGLEWMGIIYPGDSDTRYSPSFQGQVTISADKSISTAYLQWSSLKASDTAMYYCARGTAAGRDYYYYYGMDVWGQGTTVTVSS", "VL": "AIVMTQPPLSSPVTLGQPASISCRSSQSLVHSDGNTYLNWLQQRPGQPPRLLIYKFFRRLSGVPDRFSGSGAGTDFTLKISRVEAEDVGVYYCMQVTQFPHTFGQGTRLEIKR", "notes": "also called mAb CHIR-5.9; 131.2F8.5.9"}}, "key": {"[1]": {"biological_target": "T1, human CD40, soluble or recombinant (ELISA, Biacore) (human, UniProt P25942 21-193, limits assumed)", "T1 construct": "also called soluble CD40; recombinant CD40", "T1 sequence (P25942 21-193 limits assumed)": "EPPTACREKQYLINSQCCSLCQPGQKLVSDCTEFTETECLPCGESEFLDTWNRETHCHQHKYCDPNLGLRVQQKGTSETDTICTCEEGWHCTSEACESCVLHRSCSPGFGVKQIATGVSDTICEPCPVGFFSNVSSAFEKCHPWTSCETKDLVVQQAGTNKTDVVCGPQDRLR", "assay": "Biacore (method named in paragraph 140)"}, "[2]": {"biological_target": "T2, human CD40, cell-surface (on human B cells, monocytes and other CD40-expressing cells) (human, UniProt P25942 20-277)", "T2 sequence (P25942 20-277)": "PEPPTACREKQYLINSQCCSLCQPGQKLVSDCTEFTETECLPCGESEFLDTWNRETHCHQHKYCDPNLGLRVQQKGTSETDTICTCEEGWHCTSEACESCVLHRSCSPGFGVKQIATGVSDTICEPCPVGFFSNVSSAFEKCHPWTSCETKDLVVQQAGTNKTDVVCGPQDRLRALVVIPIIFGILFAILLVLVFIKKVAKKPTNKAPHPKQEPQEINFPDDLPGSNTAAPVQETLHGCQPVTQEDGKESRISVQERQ", "assay": "cell-based or functional assay"}, "[3]": {"biological_target": "T2, human CD40, cell-surface (on human B …)", "assay": "cell-based or functional assay", "remark": "listed apart in the source"}}}
{"binder": "B1", "values": [{"measurement": "Kd", "setting": "[1]", "value": 0.5, "unit": "nM"}]}
{"binder": "B2", "values": [{"measurement": "MCP-1 secretion, monocytes, Donor 1 (folds of induction over background)", "setting": "[2]", "value": 290, "unit": "fold"}, {"measurement": "MIP-1beta secretion, monocytes, Donor 1 (folds of induction over background)", "setting": "[2]", "value": 162, "unit": "fold"}, {"measurement": "hIL6 secretion, monocytes, Donor 1 (folds of induction over background)", "setting": "[2]", "value": 77.9, "unit": "fold"}, {"measurement": "hIL8 secretion, monocytes, Donor 1 (folds of induction over background)", "setting": "[2]", "value": 124, "unit": "fold"}, {"measurement": "hIL-10 secretion, monocytes, Donor 1 (folds of induction over background)", "setting": "[2]", "value": 4.2, "unit": "fold"}, {"measurement": "hTNF-alpha secretion, monocytes, Donor 1 (folds of induction over background)", "setting": "[2]", "value": 13.8, "unit": "fold"}, {"measurement": "MCP-1 secretion, normal B cells, Donor 1 (folds of induction over background)", "setting": "[3]", "value": 5.5, "unit": "fold"}, {"measurement": "MCP-1 secretion, normal B cells, Donor 3 (folds of induction over background)", "setting": "[3]", "value": 1.7, "unit": "fold"}, {"measurement": "MIP-1beta secretion, normal B cells, Donor 1 (folds of induction over background)", "setting": "[3]", "value": 2.2, "unit": "fold"}, {"measurement": "MIP-1beta secretion, normal B cells, Donor 2 (folds of induction over background)", "setting": "[3]", "value": 2.6, "unit": "fold"}, {"measurement": "MIP-1beta secretion, normal B cells, Donor 3 (folds of induction over background)", "setting": "[3]", "value": 17.8, "unit": "fold"}, {"measurement": "hIL-6 secretion, normal B cells, Donor 1 (folds of induction over background)", "setting": "[3]", "value": 5.7, "unit": "fold"}, {"measurement": "hIL-6 secretion, normal B cells, Donor 2 (folds of induction over background)", "setting": "[3]", "value": 3.8, "unit": "fold"}, {"measurement": "hIL-6 secretion, normal B cells, Donor 3 (folds of induction over background)", "setting": "[3]", "value": 20.5, "unit": "fold"}, {"measurement": "hIL-8 secretion, normal B cells, Donor 1 (folds of induction over background)", "setting": "[3]", "value": 7.7, "unit": "fold"}, {"measurement": "hIL-8 secretion, normal B cells, Donor 2 (folds of induction over background)", "setting": "[3]", "value": 14.7, "unit": "fold"}, {"measurement": "hIL-8 secretion, normal B cells, Donor 3 (folds of induction over background)", "setting": "[3]", "value": 49.3, "unit": "fold"}, {"measurement": "hIL-10 secretion, normal B cells, Donor 1 (folds of induction over background)", "setting": "[3]", "value": 3.6, "unit": "fold"}, {"measurement": "hIL-10 secretion, normal B cells, Donor 3 (folds of induction over background)", "setting": "[3]", "value": 3.6, "unit": "fold"}, {"measurement": "hTNF-alpha secretion, normal B cells, Donor 1 (folds of induction over background)", "setting": "[3]", "value": 3.7, "unit": "fold"}, {"measurement": "hTNF-alpha secretion, normal B cells, Donor 2 (folds of induction over background)", "setting": "[3]", "value": 4.8, "unit": "fold"}, {"measurement": "hTNF-alpha secretion, normal B cells, Donor 3 (folds of induction over background)", "setting": "[3]", "value": 22.8, "unit": "fold"}]}
{"binder": "B3", "values": [{"measurement": "Kd", "setting": "[1]", "value": 12, "unit": "nM"}]}
